Earlier results as cited in paper PMC11866755.

Key:
Experiment in all cases: NMR
Asp42 = Asp42 (UniProt position 63, KRGCADNCPKN)
Asp59 = Asp59 (UniProt position 80, VCCSTDKCN--)
Glu17 = Glu17 (UniProt position 38, YKTCPEGKNLC)
His4 = His4 (UniProt position 25, YTLKCHNTQLP)
Asp101 = Asp101 (UniProt position 119, KKIVSDGNGMN)
Asp119 = Asp119 (UniProt position 137, RCKGTDVQAWI)
Asp18 = Asp18 (UniProt position 36, KRHGLDNYRGY)
Asp48 = Asp48 (UniProt position 66, TNRNTDGSTDY)
Asp52 = Asp52 (UniProt position 70, TDGSTDYGILQ)
Asp66 = Asp66 (UniProt position 84, RWWCNDGRTPG)
Asp87 = Asp87 (UniProt position 105, ALLSSDITASV)
Glu35 = Glu35 (UniProt position 53, CAAKFESNFNT)
Glu7 = Glu7 (UniProt position 25, VFGRCELAAAM)
His15 = His15 (UniProt position 33, AAMKRHGLDNY)
Asp40 = Asp40 (UniProt position 122, RLLLVDTPETK); settings: folded protein, ligand state not stated
Asp77 = Asp77 (UniProt position 159, IEVEFDKGQRT); settings: folded protein, ligand state not stated
Asp83 = Asp83 (UniProt position 165, KGQRTDKYGRG); settings: folded protein, ligand state not stated
Asp95 = Asp95 (UniProt position 177, AYIYADGKMVN); settings: folded protein, ligand state not stated
Glu10 = Glu10 (UniProt position 92, KKLHKEPATLI); settings: folded protein, ligand state not stated
Glu101 = Glu101 (UniProt position 183, GKMVNEALVRQ); settings: folded protein, ligand state not stated
Glu122 = Glu122 (UniProt position 204, GNNTHEQLLRK); settings: folded protein, ligand state not stated
Glu129 = Glu129 (UniProt position 211, LLRKAEAQAKK); settings: folded protein, ligand state not stated
Glu135 = Glu135 (UniProt position 217, AQAKKEKLNIW); settings: folded protein, ligand state not stated
Glu43 = Glu43 (UniProt position 125, LVDTPETKHPK); settings: folded protein, ligand state not stated
Glu52 = Glu52 (UniProt position 134, PKKFNEKYGPE); settings: folded protein, ligand state not stated
Glu57 = Glu57 (UniProt position 139, EKYGPEASAFT); settings: folded protein, ligand state not stated
Glu67 = Glu67 (UniProt position 149, TKKMVENAKKI); settings: folded protein, ligand state not stated
Glu73 = Glu73 (UniProt position 155, NAKKIEVEFDK); settings: folded protein, ligand state not stated
Glu75 = Glu75 (UniProt position 157, KKIEVEFDKGQ); settings: folded protein, ligand state not stated
His121 = His121 (UniProt position 203, KGNNTHEQLLR); settings: folded protein, ligand state not stated
His8 = His8 (UniProt position 90, STKKLHKEPAT); settings: folded protein, ligand state not stated
[1] = target: His2 (position 2, ----GHAHG--); settings: free peptide in solution
[2] = target: His4 (position 4, --GHAHG----); settings: free peptide in solution
[3] = target: Glu2 (position 2, ----GEAEG--); settings: free peptide in solution
[4] = target: Glu4 (position 4, --GEAEG----); settings: free peptide in solution
[5] = target: Glu4 (position 4, --GHAEG----); settings: free peptide in solution
[6] = target: His2 (position 2, ----GHAEG--); settings: free peptide in solution
[7] = target: Glu2 (position 2, ----GEAHG--); settings: free peptide in solution
[8] = target: His4 (position 4, --GEAHG----); settings: free peptide in solution

For “Cardiotoxin V (cytotoxin 5, CTX A5) (Naja atra (printed as Naja naja atra, Chinese/Taiwan cobra))”, the pKa (Asp42) is given as 3.2, the pKa (Asp59) is given as less than 2.0 and the pKa (Glu17) is given as 4.0. For the same molecule, the pKa (His4) was 5.5.

In the case of “Hen egg-white lysozyme (HEWL) (Gallus gallus)”, the pKa (Asp101) is listed as 4.5 ±0.1, the pKa (Asp119) is listed as 3.5 ±0.3 and the pKa (Asp18) is listed as 2.8 ±0.3. The pKa (Asp48) was 1.4 ±0.2, the pKa (Asp52) was 3.6 ±0.3 and the pKa (Asp66) was 1.2 ±0.2. The pKa (Asp87) was 2.2 ±0.1, the pKa (Glu35) was 6.1 ±0.4 and the pKa (Glu7) was 2.6 ±0.2. The pKa (His15) was 5.5 ±0.2.

For “Staphylococcal nuclease Delta+PHS (printed as ΔPHS) (Staphylococcus aureus; G50F;V51N;P117G;H124L;S128A;del44-49)”, the pKa (Asp40) is given as 3.9, the pKa (Asp77) is given as less than 2.2 and the pKa (Asp83) is given as less than 2.2. For the same molecule, the pKa (Asp95) was 2.2, the pKa (Glu10) was 2.8 and the pKa (Glu101) was 3.8. The pKa (Glu122) was 3.9, the pKa (Glu129) was 3.8 and the pKa (Glu135) was 3.8. The pKa (Glu43) was 4.3, the pKa (Glu52) was 3.9 and the pKa (Glu57) was 3.5. For the same molecule, the pKa (Glu67) was 3.58, the pKa (Glu73) was 3.3 and the pKa (Glu75) was 3.3. The pKa (His121) was 5.24 and the pKa (His8) was 6.5.

B1: Pentapeptide GHAHG (synthetic) (peptide)
chain: GHAHG
In the case of B1, the pKa [1] is given as 6.23 and the pKa [2] is given as 6.66.

B2: Pentapeptide GEAEG (synthetic) (peptide)
chain: GEAEG
For B2, the pKa [3] is given as 4.06 and the pKa [4] is given as 4.04.

B3: Pentapeptide GHAEG (synthetic) (peptide)
chain: GHAEG
In the case of B3, the pKa [5] is given as 3.81 and the pKa [6] is given as 6.14.

B4: Pentapeptide GEAHG (synthetic) (peptide)
chain: GEAHG
In the case of B4, the pKa [7] is listed as 3.76 and the pKa [8] is listed as 6.59.
